Data reported in article PMC3136132.

Target: FMRP (UniProt Q06787)
Assay: biotin-RNA affinity capture
Details: 50 mM Tris-HCl pH 7.4, 2 mM MgCl2, 150 mM KCl, 1 mM EDTA, 1 mM DTT (Schaeffer buffer without tRNA, supplemented with 125 mM NaCl); SoftLink avidin resin …; scale: fold more RNA needed than eEF-1A mRNA for comparable binding

Q: Which fold more RNA needed than eEF-1A mRNA does the source give for BC1 RNA, annealed here?
A: The fold more RNA needed than eEF-1A mRNA was 100.
